Measured values from patent US20140287989A1 (CENTRE NATIONAL DE LA RECHERCHE SCIENTIFIQUE, published 2014).
Read-outs that look alike come from different tables or passages of the source. Square brackets hold non-standard residues; d marks the D form. Cha = N[C@@H](CC1CCCCC1)C(=O)O

Columns and labels:
[1] = target: T1, E. coli β clamp (β subunit of DNA polymerase III, dnaN gene product) (E. coli, UniProt P0A988 1-366); experiment: SPR competition: peptide with β ring injected on immobilized P1
T1 construct: Homodimeric ring; N-tagged protein expressed in BL21 E. coli and purified on Ni-NTA and MonoQ; also called β ring; β protein; not shown: N-terminal tag from the pET15b plasmid

[2] = target: T1, E. coli β clamp (β subunit of DNA …); experiment: as above; remark: listed apart in the source
[3] = target: T1, E. coli β clamp (β subunit of DNA …); experiment: SPR competition; ΔG = -RT ln Ki
[4] = target: T1, E. coli β clamp (β subunit of DNA …); experiment: SPR competition: peptide with β ring injected on immobilized P1; remark: listed apart in the source

T1 sequence (P0A988 whole entry): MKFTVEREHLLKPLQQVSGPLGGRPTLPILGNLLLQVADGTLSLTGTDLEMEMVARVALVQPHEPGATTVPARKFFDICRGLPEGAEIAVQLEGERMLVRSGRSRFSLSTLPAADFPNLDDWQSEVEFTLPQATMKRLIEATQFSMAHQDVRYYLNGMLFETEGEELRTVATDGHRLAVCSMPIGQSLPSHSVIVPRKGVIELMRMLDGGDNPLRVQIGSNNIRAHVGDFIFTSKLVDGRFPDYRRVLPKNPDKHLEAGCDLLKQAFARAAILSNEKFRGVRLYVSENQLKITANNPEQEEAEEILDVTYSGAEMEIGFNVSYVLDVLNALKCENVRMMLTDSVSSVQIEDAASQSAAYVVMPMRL

B1: P7, Ac-Gln-Cha-Asp-Leu-Phe-OH (peptide)
peptide: Ac-Q[Cha]DLF-OH
SMILES: CC(=O)N[C@@H](CCC(N)=O)C(=O)N[C@@H](CC1CCCCC1)C(=O)N[C@@H](CC(=O)O)C(=O)N[C@@H](CC(C)C)C(=O)N[C@@H](Cc1ccccc1)C(=O)O
notes: X stands for the non-natural residue; also called Ac Q ChaDLF; AcQChaDLF
IC50 [1]: 170 nM
IC50 [2]: 170 nM
ΔG [3]: -9.42 kcal/mol
IC50 [4]: 170 nM
